Measurements published in patent publication US7041283B1, “Methods of using immunophilin binding drugs to improve integration and survival of neuronal cell transplants” (University of Pittsburgh-Of the Commonwealth System of …, priority 2001, dated 2006).

System: second trimester human fetal neuroglial cultures
Assay: Second trimester human fetal neuroglial cultures treated with FK506 and/or BDNF; MAP-2/GFAP immunostaining and propidium iodide cell counts by laser confocal microscopy
Assay type: cell-based
Protocol: Surgical pathology fetal specimens were collected and processed in accordance with the University of Pittsburgh Human Tissue Committee guidelines. Human telencephalic tissues (18-21 weeks of gestation) were collected and placed in DMEM medium (Life Technologies Inc., Grand Island, N.Y.). […] Tissue processing followed a modified mouse brain dissociation protocol. Within 1 hour of collection, the brain material was placed in Ca^++-and Mg^++-free DPBS (Life Technologies), cleaned of meninges, rinsed and minced. Tissue fragments were incubated in 0.05% trypsin-EDTA with additives (Life Technologies) for 5 min at 37° C. and further dissociated. Trypsin inhibitor (10 mg/ml; Sigma, St. Louis, Mo.) was subsequently added, followed by centrifugation for 5 min at 250×g. After filtering through 70 μm nylon-mesh cell strainers (Becton Dickinson, Franklin Lakes, N.J.), the cell suspension was cleaned by gradient centrifugation through an 8% BSA (Sigma) layer (250×g, 10 min). A second filtering was performed using 70 μm and 40 μm nylon-mesh cell strainers (Becton Dickinson). The single cell suspension was counted on a hemocytometer using trypan blue exclusion, brought to a final density of 10^6 cells/ml and plated on poly-l-ornithine (Sigma) and laminin (Life Technologies) coated 12 mm glass coverslips (Fisher, Pittsburgh, PA) on 24-well plates (Becton Dickinson).
Throughout the experiments standard tissue culture techniques were used, in combination with the drug protocol. More specifically, cultures were incubated in 10% CO2 at 37° C. and fed every other day for 1, 5, 12, or 21 days with fresh NPMM (Bio Whittaker, San Diego, Calif.), followed by NPMM with or without various concentrations of FK506 (provided by Dr. A. Zeevi) and/or BDNF (5 ng/ml, Promega, Madison, Wis.).
In an attempt to identify the cell phenotype that is most affected by different treatments, the neuroglial cultures were immunostained for the neuronal marker MAP-2 and the astrocytic marker GFAP. After 7 days of treatment, cultures were washed with PBS and PBS with 0.05% Tween 20 (Sigma), fixed with 4% paraformaldehyde for 30 min and then incubated for 30 min with PBS with 0.2% BSA and 0.1% Triton X (Sigma). Without washing, cultures were incubated overnight at 4° C. with the primary antibodies mouse anti-MAP-2(1:500, Stemberger Monoclonals Inc., Baltimore, Md.) and rabbit anti-GFAP (1:100, Dako, Capinteria, Calif.). After thorough washing with PBS+0.05% Tween 20, a secondary antibody (FITC-conjugated goat anti- mouse and FITC- conjugated goat anti- rabbit) was applied for 2 hours (1:200, Jackson Immuno, West Grove, Pa.). All antibodies were diluted in common antibody diluent (ScyTek, Logan, Utah). RNase A (10 μg/ml; Sigma) was added during the secondary antibody incubation (20 min), followed by the nuclear stain propidium iodide (5 μg/ml, Sigma). Propidium iodide was used to allow quantification of cell numbers for each treatment condition, using LCM and ImageSpace software as described below. Coverslips were then washed and mounted on glass slides (Fisher) using gelvatol fluorescence mounting medium.
A quantitative assessment of the results (i.e., the numbers of cell nuclei stained with propidium iodide and areas covered by immunofluorescent marker staining) using laser confocal microscopy and ImageSpace software (Molecular Dynamics, Sunnyvale, Calif.) was carried out as follows: six randomly chosen fields were analyzed per coverslip (well). The Argon/Krypton laser confocal microscope 40× objective with oil immersion lens (Model 2001, Molecular Dynamics) was used. Images of 512×512 pixels were collected at a pixel size of […]. Vertical sections were acquired in order to define vertical borders for the collection of Z-series. The step size between adjacent sections was […]. FITC was excited with a wavelength of 488 nm and collected with a 530DF30 filter. Propidium iodide was excited with a wavelength of 568 nm and collected with a 590DFLP filter. […]

Molecule | toxic effects (higher concentrations of FK506) | neurite outgrowth / neuronal processes extension | enhancement of neuronal differentiation (5 ng/ml, 7 days of treatment) | MAP-2 surface/cell number ratio (5 ng/ml, 7 days of treatment starting at DIC 12, vs control) | GFAP surface/cell number ratio (GFAP expression) (7 days of treatment, vs control) | number of neurons (BDNF: NeuN immunostaining, unpublished observations)
C=CC[C@@H]1/C=C(\C)C[C@H](C)C[C@H](OC)[C@H]2O[C@@](O)(C(=O)C(=O)N3CCCC[C@H]3C(=O)O[C@H](/C(C)=C/[C@@H]3CC[C@@H](O)[C@H](OC)C3)[C@H](C)[C@@H](O)CC1=O)[C@H](C)C[C@@H]2OC [FK506, reference compound] | did not appear to exert toxic effects | – | – | – | – | –
BDNF: brain-derived neurotrophic factor (Promega), neurotrophic protein (protein, UniProt P23560 129-247, looked up, Neurotrophic factor BDNF, brain-derived neurotrophic factor (Promega), neurotrophic protein) Neurotrophic factor BDNF: HSDPARRGELSVCDSISEWVTAADKKTAVDMSGGTVTVLEKVPVSKGQLKQYFYETKCNPMGYTKEGCRGIDKRHWNSQCRTTQSYVRALTMDSKKRIGWRFIRIDTSCVCTLTIKRGR | – | tends to increase | not significant | not significantly different from control | decreased | modestly increasing
